This passage reports stoichiometry N, binding result and Kd results from paper PMC10157535, “Structural basis of phosphorylation-induced activation of the response regulator VbrR”.

Data set [1] has as its target VbrR receiver domain (RD, 1-117) (Vibrio parahaemolyticus). Briefly: SEC-MALS; SEC-MALLS, Superdex-200 10/30, buffer A supplemented with 5.3 mM BeSO4, 35 mM NaF and 7 mM MgCl2 (BeF3-), 100 uL of ~10 mg/mL protein injected.
The target in data set [2] is full-length VbrR (response regulator VbrR from Vibrio parahaemolyticus) (Vibrio parahaemolyticus). Briefly: SEC-MALS; SEC-MALLS, Superdex-200 10/30, buffer A (20 mM Tris-HCl pH 8.0, 100 mM NaCl), 100 uL of ~10 mg/mL protein injected, 0.5 mL/min; no BeF3-.
For data set [3], the target named is VbrR DNA-binding domain (DBD, 125-220) (Vibrio parahaemolyticus). The data set is described as above.
Data set [4] has as its target T1, VbrR (monomer fraction) (Vibrio parahaemolyticus, UniProt A0A0L8SKF9 1-220).
T1 sequence: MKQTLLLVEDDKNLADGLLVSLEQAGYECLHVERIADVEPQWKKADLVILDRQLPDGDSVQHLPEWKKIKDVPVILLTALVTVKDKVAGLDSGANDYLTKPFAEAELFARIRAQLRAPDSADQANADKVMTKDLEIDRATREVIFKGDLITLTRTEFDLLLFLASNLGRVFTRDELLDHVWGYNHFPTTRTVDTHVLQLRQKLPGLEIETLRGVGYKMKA
As to the kind of experiment: crystal structure; 4.6 A; VbrR dimer on DNA; BLI (Octet RED, biotinylated protein on streptavidin sensors), PBS: 10 mM phosphate pH 7.4, 2.7 mM KCl, 137 mM NaCl, 25 C; 1:1 fit. The settings on record: protein: recombinant; tags: N-terminal 6xHis; biotinylated for BLI; chain copies: 2; blunt.

Data set [5] concerns the target T2, VbrR (state not stated) (Vibrio parahaemolyticus, UniProt A0A0L8SKF9 1-220).
T2 sequence: T1 sequence
Briefly: BLI; 10-160 uM DNA; text order of the two values (0.69, 0.77) matches 30 bp then 49 bp; BLI (Octet RED, biotinylated protein on streptavidin sensors), PBS: 10 mM phosphate pH 7.4, 2.7 mM KCl, 137 mM NaCl, 25 C; 1:1 fit. The settings on record: protein: recombinant, tags: N-terminal 6xHis, chain copies: 2.

Data set [6] has as its target T3, VbrR DBD (monomer fraction) (Vibrio parahaemolyticus, UniProt A0A0L8SKF9 125-220).
T3 sequence: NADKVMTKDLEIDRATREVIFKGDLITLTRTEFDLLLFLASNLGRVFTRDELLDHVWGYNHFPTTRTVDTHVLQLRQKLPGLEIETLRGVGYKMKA
Briefly: BLI; DBD monomer; BLI (Octet RED, biotinylated protein on streptavidin sensors), PBS: 10 mM phosphate pH 7.4, 2.7 mM KCl, 137 mM NaCl, 25 C; 1:1 fit. The settings on record: protein: recombinant, tags: N-terminal 6xHis.

Data set [7] addresses T1, VbrR (monomer fraction). As to the kind of experiment: BLI; VbrR monomer; BLI (Octet RED, biotinylated protein on streptavidin sensors), PBS: 10 mM phosphate pH 7.4, 2.7 mM KCl, 137 mM NaCl, 25 C; 1:1 fit. To be noted: protein: recombinant; tags: N-terminal 6xHis; biotinylated for BLI.
Data set [8] addresses T2, VbrR (state not stated). As to the kind of experiment: BLI; 2.5-80 uM DNA; oligomeric state not stated; BLI (Octet RED, biotinylated protein on streptavidin sensors), PBS: 10 mM phosphate pH 7.4, 2.7 mM KCl, 137 mM NaCl, 25 C; 1:1 fit. To be noted: protein: recombinant, tags: N-terminal 6xHis, chain copies: 2.

With “VbrR receiver domain (RD, 1-117) (domain or fragment)”, the stoichiometry N in data set [1] came to 2.
“full-length VbrR (response regulator VbrR from Vibrio parahaemolyticus) (natural protein)”: the stoichiometry N in data set [2] worked out at 2.
Consider “VbrR DNA-binding domain (DBD, 125-220) (domain or fragment)”, for which the stoichiometry N in data set [3] is 2.

B1: exsC promoter 26 bp (dsDNA)
DNA 1: CACAATTCTAATTCTTCATCGCTTGT
DNA 2: ACAAGCGATGAAGAATTAGAATTGTG
With B1, the binding result in data set [4] is listed as “binds”.

B2: exsC promoter 30 bp (dsDNA)
DNA 1: AACACAATTCTAATTCTTCATCGCTTGTCG
DNA 2: CGACAAGCGATGAAGAATTAGAATTGTGTT
Regarding B2, in data set [5], the Kd was found to be 690 nM.

B3: exsC promoter 49 bp (dsDNA)
DNA 1: AACACAATTCTAATTCTTCATCGCTTGTCGATATAAACCAAAATCCCAC
DNA 2: GTGGGATTTTGGTTTATATCGACAAGCGATGAAGAATTAGAATTGTGTT
For B3, the Kd in data set [6] was 140 nM; in data set [7], 270 nM; in data set [8], 770 nM.
